Test results: patent US9057734B2, “Optogenetic probes for measuring membrane potential” (President and Fellows of Harvard College, priority 2010, dated 2015)
Entries after “also recorded” stand apart in the source; their conditions may differ.

Tests used:
[1] = tested on: E. coli; test: Chemical perturbation of fluorescence flashing of E. coli expressing PROPS; type: cell-based; details: 20 μg/mL
From the text: PROPS was expressed in E. coli, the cells were immobilized on a glass coverslip, and imaged in an inverted epifluorescence microscope while gently flowing minimal medium at pH 7 over the cells. […] The flashes occurred simultaneously (to within the 10 ms imaging resolution) and homogeneously over the extent of a cell. Flashes were uncorrelated between neighboring cells.
Flashing cells were subjected to chemical perturbations in an effort to deduce the mechanism of the voltage changes. In unstirred medium in a sealed chamber, the flashing ceased over ˜15 minutes; but re-started upon addition of freshly oxygenated medium. Removal of oxygen from the medium using Oxyrase also reversibly eliminated flashing. From these experiments it was concluded that flashing requires aerobic respiration. Under continuous gentle flow of aerated minimal medium, cells flashed continuously for >1 hr. Cells stored in minimal media for several days at 4° C. started flashing when warmed to room temperature.
Flashing was highly sensitive to pHo, occurring only between pH 7 and 9. Flashing frequencies increased and on-time decreased at lower pH. Flashing was more likely to be periodic at lower pH. Extremes of pH (<6 or >9.5) irreversibly eliminated flashing, causing cells to enter the bright state in an abrupt transition.

[2] = tested on: HEK-293 cells; test: Fluorescence versus membrane potential under whole-cell voltage clamp (ramp, step, frequency response, noise); type: cell-based, human
Protocol: Fluorescence of Arch 3 in HEK 293 cells was readily imaged in an inverted fluorescence microscope with red illumination (λ=640 nm, I=540 W/cm^2), a high numerical aperture objective, a Cy5 filter set, and an EMCCD camera. […] Cells not expressing Arch were not fluorescent.
HEK-293 cells were grown at 37° C., 5% CO2, in DMEM supplemented with 10% FBS and penicillin-streptomycin. Plasmids were transfected using LIPOFECTAMINE™ and PLUS reagent (Invitrogen) following the manufacturer's instructions, and assayed between 48-72 hours later. The day before recording, cells were re-plated onto glass-bottom dishes (MatTek) at a density of ˜5000 cells/cm^2.
The concentration of endogenous retinal in the HEK cells was not known, so the cells were supplemented with retinal by diluting stock retinal solutions (40 mM, DMSO) in growth medium to a final concentration of 5 μM, and then placing the cells back in the incubator for 1-3 hours. All imaging and electrophysiology were performed in Tyrode's buffer (containing, in mM: 125 NaCl, 2 KCl, 3 CaCl2, 1 MgCl2, 10 HEPES, 30 glucose pH 7.3, and adjusted to 305-310 mOsm with sucrose). Only HEK cells having reversal potentials between −10 and −40 mV were included in the analysis.
Simultaneous fluorescence and whole-cell patch clamp recordings were acquired on a home-built, inverted epifluorescence microscope at room temperature. A diode laser operating at 100 mW, 640 nm (CrystaLaser, DL638-100-O) provided wide-field illumination at an intensity typically between 500-2000 W/cm^2. To minimize background signal from out-of-focus debris, illumination was often performed in through-the-objective total internal reflection fluorescence (TIRF) mode. Fluorescence emission was collected using a 60×, 1.45 NA oil immersion objective (Olympus), and separated from scattered excitation using a 660-760 nm bandpass emission filter (Chroma). For fast imaging of dynamic fluorescence responses and action potentials, images were acquired on an Andor iXon^+ 860 camera operating at up to 2,000 frames/s (using a small region of interest and pixel binning). Slower images with higher spatial resolution were acquired on an Andor iXon^+ 897 EMCCD. Custom software written in LabView (National Instruments) was used to synchronize illumination, collection of images, recording of membrane potential and cell current, and application of electrical stimuli to the cell.
Filamented glass micropipettes (WPI) were pulled to a tip resistance of 3-10 MΩ, fire polished, and filled with internal solution (containing, in mM: 125 Potassium gluconate, 8 NaCl, 0.6 MgCl2, 0.1 CaCl2, 1 EGTA, 10 HEPES, 4 Mg-ATP, 0.4 Na-GTP, pH 7.3; adjusted to 295 mOsm with sucrose). The micropipettes were positioned with a Burleigh PCS 5000 micromanipulator. Whole-cell, voltage clamp recordings were acquired using an AxoPatch 200B amplifier (Molecular Devices), filtered at 2 kHz with the internal Bessel filter, and digitized with a National Instruments PCIE-6323 acquisition board at 10 kHz. Ambient 60 Hz noise was removed using a HumBug Noise Eliminator (AutoMate Scientific). For experiments requiring rapid modulation of transmembrane potential, series resistance and whole-cell capacitance were predicted to 95% and corrected to ˜50%. Electrical stimuli were generated using the PCIE-6323 acquisition board and sent to the AXOPATCH™, which then applied these signals in either constant current or constant voltage mode.
To measure fluorescence as a function of membrane potential, a triangle wave was applied, with amplitude from −150 mV to +150 mV and period 12 s, with video recording at 100 ms per frame. A pixel weight matrix was calculated according to Eq. S2 and applied to the movie images to generate a fluorescence number for each frame. These fluorescence values were divided by their minimum value (at V=−150 mV). The result is plotted as a function of Vin FIGS. 7 and 8. […]

[3] = tested on: HEK cells; test: Photocurrents under 640 nm illumination in voltage-clamped cells; type: cell-based, human; details: illumination at 640 nm
Protocol: Measurements of photocurrents were performed on HEK cells held in voltage clamp at 0 mV while being exposed to brief (200 ms) pulses of illumination at 640 nm at an intensity of 1800 W/cm^2.

[4] = tested on: neurons; test: Light-induced photocurrent and perturbation of membrane potential in neurons; type: cell-based, rat; details: 640 nm, 1800 W/cm2
From the text: Under illumination conditions typically used for imaging neural activity (I=1800 W/cm2 in total internal reflection (TIR) mode), the light-induced outward photocurrent was typically 10 pA in neurons expressing Arch 3 WT. Under current-clamp conditions this photocurrent shifted the resting potential of the neurons by up to −20 mV. For neurons near their activation threshold, this photocurrent could suppress firing (FIG. 9A), so we explored the non-pumping variant D95N as a voltage indicator in neurons.
Whole-cell current clamp recordings were obtained from mature neurons under the same conditions used for HEK cells recordings. Series resistance and pipette capacitance were corrected. Only neurons having resting potentials between −50 and −70 mV were used in the analysis.

[5] = Spectroscopic characterization of purified Arch WT and D95N; type: physicochemical
Protocol: FIGS. 17A-17C show pH-dependent spectra of Arch 3 WT and D95N. […] At neutral pH, Arch absorbed maximally at 558 nm. Fluorescence emission (dashed line) was recorded on 2 μM protein solubilized in 1% DM, with λexc=532 nm. […] The absorption maximum was at 585 nm. […] Singular Value Decomposition of absorption spectra between 400-750 nm was used to calculate the fraction of the SB in the protonated state as a function of pH. The result was fit to a Hill function to determine the pKa of the SB.
Arch and its D95N mutant were expressed and purified from E. coli, following Bergo, V., et al. (Conformational changes detected in a sensory rhodopsin II-transducer complex. J. Biol. Chem. 278, 36556-36562 (2003)). Briefly, E. coli (strain BL21, pet28b plasmid) was grown in 1 L of LB with 100 μg/mL kanamycin, to an O.D 600 of 0.4 at 37° C. All-trans retinal (5 μM) and inducer (IPTG 0.5 mM) were added and cells were grown for an additional 3.5 hours in the dark. Cells were harvested by centrifugation and resuspended in 50 mM Tris, 2 mM MgCl2 at pH 7.3 and lysed with a tip sonicator for 5 minutes. The lysate was centrifuged and the pellet was resuspended in PBS supplemented with 1.5% dodecyl maltoside (DM). The mixture was homogenized with a glass/teflon Potter Elvehjem homogenizer and centrifuged again. The supernatant was concentrated and washed using a centricon 30k MWCO filter to a final volume of 3 mL.
The absorption spectra of purified Arch 3 WT and D95N were determined using an Ocean Optics USB4000 spectrometer with a DT-MINI-2-GS light source. Absorption spectra, for Arch 3 WT and D95N, were measured as a function of pH between pH 6 and 11. To determine the fluorescence emission spectra, proteins in a quartz cuvette were illuminated with the uncollimated beam of a 100 mW, 532 nm laser (Dragon Lasers, 532GLM100) or a 25 mW, 633 nm HeNe laser (Spectra-Physics). Scattered laser light was blocked with a 532 nm Raman notch filter (Omega Optical, XR03) or a 710/100 emission filter (Chroma), and fluorescence was collected perpendicular to the illumination with a 1000 micron fiber, which passed the light to an Ocean Optics QE65000 spectrometer. Spectra were integrated for 2 seconds.
The fluorescence quantum yields of Arch 3 WT and D95N were determined by comparing the integrated emission intensity to emission of a sample of the dye ALEXA FLUOR® 647 Conjugate. Briefly, the concentrations of micromolar solutions of dye and protein were determined using a visible absorption spectrum. […] The fluorescence emission spectra of dye and protein samples were measured with 633 nm excitation. The quantum yield was then determined by the formula
where Fl is the integrated fluorescence from 660 to 760 nm, ε is the extinction coefficient at 633 nm and c is the concentration.

N#CC(C#N)=NNc1cccc(Cl)c1 [CCCP, Carbonyl cyanide 3-chlorophenylhydrazone]
effect on blinking [1]: rapidly and irreversibly eliminated the blinking

B1: Arch D95N: D95N mutant of Archaerhodopsin 3 without photocurrent, voltage indicator (protein, UniProt P96787 7-258, looked up, variant D95N)
Archaerhodopsin-3: QAGYDLLGDGRPETLWLGIGTLLMLIGTFYFLVRGWGVTDKDAREYYAVTILVPGIASAAYLSMFFGIGLTEVTVGGEMLDIYYARYANWLFTTPLLLLDLALLAKVDRVTIGTLVGVDALMIVTGLIGALSHTAIARYSWWLFSTICMIVVLYFLATSLRSAAKERGPEVASTFNTLTALVLVLWTAYPILWIIGTEGAGVVGLGIETLLFMVLDVTAKVGFGFILLRSRAILGDTEAPEPSAGADVSAAD
comparison with Arch 3 WT [2]: more sensitive and brighter than Arch 3 WT, but had a slower response
voltage steps resolved/reported ([2]; HEK cells): 10 mV
fast component of step response, time ([2]; step response): < 500 μs
response time to a step in membrane potential ([2]; steps between −70 mV and +30 mV): 40 ms
increase of fluorescence (fold/factor) between −150 mV and +150 mV ([2]; whole-cell voltage clamp): 3
photocurrent / photoinduced proton pumping [3]: no photocurrent; also recorded: eliminated the photocurrent
photocurrent / photoinduced proton pumping ([3]; listed as Arch 3 D95N): lacks photoinduced proton pumping
effect of illumination on membrane potential [4]: no effect of illumination on spiking or resting potential; also recorded: did not perturb membrane potential
ε633 ([5]; calibrated assuming peak extinction coefficient of Bacteriorhodopsin, 63,000 M^−1 cm^−1): 37,500 M^−1cm^−1
QY ([5]; comparison to Alexa 647, excitation at 633 nm): 4 × 10^−4
